The test concerns the target vitronectin (UniProt P04004).
Chain of UniProt P04004 (P04004 20-478): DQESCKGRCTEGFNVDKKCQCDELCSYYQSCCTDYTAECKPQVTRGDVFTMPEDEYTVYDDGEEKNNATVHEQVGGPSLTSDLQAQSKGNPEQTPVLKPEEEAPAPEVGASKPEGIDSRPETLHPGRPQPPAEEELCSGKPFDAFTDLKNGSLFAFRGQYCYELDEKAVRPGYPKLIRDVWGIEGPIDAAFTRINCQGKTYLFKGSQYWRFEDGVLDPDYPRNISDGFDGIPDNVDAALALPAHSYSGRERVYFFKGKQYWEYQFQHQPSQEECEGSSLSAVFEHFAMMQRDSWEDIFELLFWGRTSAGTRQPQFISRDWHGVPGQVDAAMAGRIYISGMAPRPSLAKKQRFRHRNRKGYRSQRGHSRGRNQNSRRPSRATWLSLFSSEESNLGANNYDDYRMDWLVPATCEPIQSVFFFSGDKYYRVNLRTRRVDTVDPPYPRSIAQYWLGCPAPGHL

“αvβ3 integrin (from UniProt P06756 31-1048; P05106 27-788) (receptor)” yielded a detachment of adherent WM266 cells from vitronectin-coated plates by the anti-αvβ3 antibody LM609 (10 µg/mL), 2 h of 50%.
